In publication PMC10786891, “Massively parallel profiling of RNA-targeting CRISPR-Cas13d”:

T1: EsCas13d, nuclease-dead (Eubacterium siraeum, UniProt B0MS50, R295A;H300A;R849A;H854A)
T1 sequence: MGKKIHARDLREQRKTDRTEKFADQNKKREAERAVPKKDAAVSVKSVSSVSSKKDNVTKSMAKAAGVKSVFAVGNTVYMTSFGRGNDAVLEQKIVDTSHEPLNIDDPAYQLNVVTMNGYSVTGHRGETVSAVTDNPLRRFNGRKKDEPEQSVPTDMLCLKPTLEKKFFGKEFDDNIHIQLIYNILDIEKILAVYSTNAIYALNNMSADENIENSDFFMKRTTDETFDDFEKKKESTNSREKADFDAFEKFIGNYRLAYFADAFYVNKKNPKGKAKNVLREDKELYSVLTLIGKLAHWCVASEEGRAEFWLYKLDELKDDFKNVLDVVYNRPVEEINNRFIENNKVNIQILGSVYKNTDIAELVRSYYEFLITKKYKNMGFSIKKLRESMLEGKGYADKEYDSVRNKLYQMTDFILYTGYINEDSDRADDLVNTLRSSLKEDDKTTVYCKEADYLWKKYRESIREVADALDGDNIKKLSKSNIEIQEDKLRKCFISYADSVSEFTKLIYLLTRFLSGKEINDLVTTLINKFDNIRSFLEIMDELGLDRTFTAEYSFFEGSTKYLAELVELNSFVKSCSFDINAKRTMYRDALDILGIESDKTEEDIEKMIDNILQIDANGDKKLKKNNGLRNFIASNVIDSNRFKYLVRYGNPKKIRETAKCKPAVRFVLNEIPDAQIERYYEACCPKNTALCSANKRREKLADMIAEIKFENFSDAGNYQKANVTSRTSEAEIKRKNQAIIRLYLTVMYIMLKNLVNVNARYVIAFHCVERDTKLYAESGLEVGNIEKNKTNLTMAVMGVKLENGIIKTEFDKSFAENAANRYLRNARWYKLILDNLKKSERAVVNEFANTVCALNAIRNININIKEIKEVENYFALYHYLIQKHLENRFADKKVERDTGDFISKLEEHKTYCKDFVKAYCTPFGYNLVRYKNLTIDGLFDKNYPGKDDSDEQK

B1: target 2 MT 5'PFS UUU 3'PFS CCG (mixed)
RNA 1: CACCCGUGCAAAAUUGCAGGGGUCUAAAACCUUCUCCAAAUUGUUUCAUCCU
RNA 2: GGGAAUGGAUCCACAUCUACGAAUUCUUUAGGAUGAAACAAUUUGGAGAAGCCGAGAUCGGAAGAGCACACGU
B2: target 2 MT 5'PFS CUU 3'PFS UCC (mixed)
RNA 1: CACCCGUGCAAAAUUGCAGGGGUCUAAAACCUUCUCCAAAUUGUUUCAUCCU
RNA 2: GGGAAUGGAUCCACAUCUACGAAUUCCUUAGGAUGAAACAAUUUGGAGAAGUCCAGAUCGGAAGAGCACACGU
B3: target 2 MT 5'PFS GAG 3'PFS CUG (mixed)
RNA 1: CACCCGUGCAAAAUUGCAGGGGUCUAAAACCUUCUCCAAAUUGUUUCAUCCU
RNA 2: GGGAAUGGAUCCACAUCUACGAAUUCGAGAGGAUGAAACAAUUUGGAGAAGCUGAGAUCGGAAGAGCACACGU
B4: target 2 MT 5'PFS CAU 3'PFS UAU (mixed)
RNA 1: CACCCGUGCAAAAUUGCAGGGGUCUAAAACCUUCUCCAAAUUGUUUCAUCCU
RNA 2: GGGAAUGGAUCCACAUCUACGAAUUCCAUAGGAUGAAACAAUUUGGAGAAGUAUAGAUCGGAAGAGCACACGU
B5: target 2 MT 5'PFS CAU 3'PFS UAA (mixed)
RNA 1: CACCCGUGCAAAAUUGCAGGGGUCUAAAACCUUCUCCAAAUUGUUUCAUCCU
RNA 2: GGGAAUGGAUCCACAUCUACGAAUUCCAUAGGAUGAAACAAUUUGGAGAAGUAAAGAUCGGAAGAGCACACGU
B6: target 2 MT 5'PFS CAU 3'PFS UAG (mixed)
RNA 1: CACCCGUGCAAAAUUGCAGGGGUCUAAAACCUUCUCCAAAUUGUUUCAUCCU
RNA 2: GGGAAUGGAUCCACAUCUACGAAUUCCAUAGGAUGAAACAAUUUGGAGAAGUAGAGAUCGGAAGAGCACACGU
B7: target 2 MT 5'PFS GAG 3'PFS CUA (mixed)
RNA 1: CACCCGUGCAAAAUUGCAGGGGUCUAAAACCUUCUCCAAAUUGUUUCAUCCU
RNA 2: GGGAAUGGAUCCACAUCUACGAAUUCGAGAGGAUGAAACAAUUUGGAGAAGCUAAGAUCGGAAGAGCACACGU
B8: target 2 MT 5'PFS CAU 3'PFS UAC (mixed)
RNA 1: CACCCGUGCAAAAUUGCAGGGGUCUAAAACCUUCUCCAAAUUGUUUCAUCCU
RNA 2: GGGAAUGGAUCCACAUCUACGAAUUCCAUAGGAUGAAACAAUUUGGAGAAGUACAGAUCGGAAGAGCACACGU
B9: target 2 MT 5'PFS GAG 3'PFS CUC (mixed)
RNA 1: CACCCGUGCAAAAUUGCAGGGGUCUAAAACCUUCUCCAAAUUGUUUCAUCCU
RNA 2: GGGAAUGGAUCCACAUCUACGAAUUCGAGAGGAUGAAACAAUUUGGAGAAGCUCAGAUCGGAAGAGCACACGU
B10: target 2 MT 5'PFS CUU 3'PFS UCA (mixed)
RNA 1: CACCCGUGCAAAAUUGCAGGGGUCUAAAACCUUCUCCAAAUUGUUUCAUCCU
RNA 2: GGGAAUGGAUCCACAUCUACGAAUUCCUUAGGAUGAAACAAUUUGGAGAAGUCAAGAUCGGAAGAGCACACGU
B11: target 2 MT 5'PFS UGG 3'PFS UUC (mixed)
RNA 1: CACCCGUGCAAAAUUGCAGGGGUCUAAAACCUUCUCCAAAUUGUUUCAUCCU
RNA 2: GGGAAUGGAUCCACAUCUACGAAUUCUGGAGGAUGAAACAAUUUGGAGAAGUUCAGAUCGGAAGAGCACACGU
B12: target 2 MT 5'PFS GCU 3'PFS CAC (mixed)
RNA 1: CACCCGUGCAAAAUUGCAGGGGUCUAAAACCUUCUCCAAAUUGUUUCAUCCU
RNA 2: GGGAAUGGAUCCACAUCUACGAAUUCGCUAGGAUGAAACAAUUUGGAGAAGCACAGAUCGGAAGAGCACACGU
B13: target 1 insA 3' of 21,insU 3' of 13 (mixed)
RNA 1: CACCCGUGCAAAAAUGCAGGGGUCUAAAACUGAGCGGAUAACCUCUCUAUGG
RNA 2: GGGAAUGGAUCCACAUCUACGAAUUCGUACCAAUAGAGAGUGUUAUCCGCUCACCGAGAUCGGAAGAGCACACGU

The binders below were run against T1, EsCas13d, nuclease-dead (assay: crRNA (strand 1, pre-loaded); Mg2+; 40 mM Tris-HCl pH 7.5, 150 mM NaCl, 6 mM MgCl2, 1 mM DTT, 0.1% Tween-20, 0.2 mg/ml BSA; 25 C; 10 min per concentration, then washed). Conditions: tags: His6-TwinStrep-SUMO cleaved; N-terminal SNAP kept (SNAP-Surface 488); label: 3' end held by stalled T7 RNA polymerase.

Row | Binder | Kd
1 | B1 | 9.8 ± 1 nM
2 | B2 | 8.2 ± 0.5 nM
3 | B3 | 8.1 ± 0.8 nM
4 | B4 | 4 ± 0.4 nM
5 | B5 | 4.7 ± 0.8 nM
6 | B6 | 5.6 ± 1.2 nM
7 | B7 | 7.9 ± 1.1 nM
8 | B8 | 3.7 ± 0.7 nM
9 | B9 | 11.3 ± 1.2 nM
10 | B10 | 4.8 ± 0.5 nM
11 | B11 | 19.2 ± 2.8 nM
12 | B12 | 10 ± 1.7 nM
13 | B13 | 26 ± 9 nM
